According to IntAct's records for PubMed 23624404:

Biological target: rad51_yeast RAD51 (UniProt P25454)
Sequence (P25454 whole entry): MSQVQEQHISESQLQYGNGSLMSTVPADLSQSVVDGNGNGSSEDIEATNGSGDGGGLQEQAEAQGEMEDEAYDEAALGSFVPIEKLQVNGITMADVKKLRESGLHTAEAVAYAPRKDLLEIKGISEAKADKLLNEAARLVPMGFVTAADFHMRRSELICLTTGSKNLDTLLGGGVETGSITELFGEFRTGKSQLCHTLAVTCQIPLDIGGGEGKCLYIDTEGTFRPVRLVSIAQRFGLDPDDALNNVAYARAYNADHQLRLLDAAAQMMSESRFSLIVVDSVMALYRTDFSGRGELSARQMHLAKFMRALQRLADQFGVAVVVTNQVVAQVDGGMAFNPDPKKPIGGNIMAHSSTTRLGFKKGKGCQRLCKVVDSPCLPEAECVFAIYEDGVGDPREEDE

For “DNA repair and recombination protein RAD52 (Saccharomyces cerevisiae) (from UniProt P06778) K10R;K11R;K220R”, the “effect of a mutation on the interaction” value was “decreasing interaction strength”.
